Target: aurka_human AURKA (UniProt O14965)
Sequence (O14965 whole entry): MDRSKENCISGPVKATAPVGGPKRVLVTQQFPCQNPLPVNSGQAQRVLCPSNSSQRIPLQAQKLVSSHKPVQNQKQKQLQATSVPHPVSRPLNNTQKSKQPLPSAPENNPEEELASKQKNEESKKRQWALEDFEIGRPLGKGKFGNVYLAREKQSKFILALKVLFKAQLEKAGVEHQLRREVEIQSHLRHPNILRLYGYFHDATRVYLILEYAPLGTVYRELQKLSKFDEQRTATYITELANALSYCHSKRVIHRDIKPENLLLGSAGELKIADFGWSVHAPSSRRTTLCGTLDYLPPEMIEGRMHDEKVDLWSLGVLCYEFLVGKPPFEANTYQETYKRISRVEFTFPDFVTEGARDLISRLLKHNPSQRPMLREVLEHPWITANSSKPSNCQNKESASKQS

Substance: Heterogeneous nuclear ribonucleoprotein K (Homo sapiens), P61978-2 S379A
- effect of a mutation on the interaction: disrupting interaction

From IntAct's records for PubMed 21821029
